Test results published in patent US9758785B2, “miR-520 microRNAs sensitize cancers to platinum-based therapy” (BAYLOR COLLEGE OF MEDICINE, priority 2012, dated 2017).
Entries after “also recorded” stand apart in the source; their conditions may differ.

Assays:
SKOV3ip1 cells [1] = test: Proliferation assay (MTS, Cell Titer 96 Aqueous One); type: cell-based, human; conditions: no cisplatin
Experimental: (§1) Established ovarian cancer cell lines were obtained from the ATCC (OVCAR8, OVCAR5) and the University of Texas M.D. Anderson Cancer Center (HEYA8, SKOV3ip1). All cell lines were maintained at 37° C. in RPMI 1640 media (Invitrogen, Carlsbad, Calif.) supplemented with 10% fetal bovine serums (Hyclone, Logan, Utah) and 1% penicillin/streptomycin (Gibco, Carlsbad, Calif.). MicroRNA mimics and mimic controls (Dharmacon, Lafayette, Colo.) were transiently transfected into actively growing cultures using Lipofectamine 2000 (Invitrogen, Carlsbad, Calif.). After a 24-hour incubation, transfected cultures were washed, passaged and seeded into 96 well plates. Proliferation and apoptosis were measured at 72, 96 and 120 hours after transfection using standard assays (Cell Titer 96 Aqueous One; Caspase Glo 3/7; Promega, Madison, Wis.). pLemiR expression vectors (Open Biosystems/Thermo, Huntsville, Ala.) were prepared according to manufacturer's instructions and transfected into cells using Fugene 6 (Roche, Indianapolis, Ind.). Following transfection, stable clones were selected using puromycin (Invitrogen) at doses optimized for each line. Rates of proliferation and apoptosis were examined in stable transfectants 24, 48, 72 and 96 hours after selected cells had been passaged and dispensed into 96 well plates. Viability was assessed across a clinically relevant range of cisplatin concentrations using an MTS assay (Promega). Cisplatin was obtained from Teva Pharmaceuticals (Irvine, Calif.).

OVCAR8 cells [2] = test: as above; type: cell-based, human; conditions: for Proliferation: no cisplatin
Experimental: as §1

OVCAR8 xenografts = test: Subcutaneous ovarian cancer xenograft; type: in vivo, mice; conditions: subcutaneous inoculation vs non-targeting control or empty vector
OVCAR8 cells [3] = test: Spheroid formation; type: cell-based, human; conditions: cells stably expressing mimics
HEYA8 cells [4] = test: Apoptosis assay (Caspase Glo 3/7); type: cell-based, human; conditions: HEYA8, acute mimic transfection
Experimental: as §1

HEY cells [5] = test: Apoptosis assay (Caspase Glo 3/7); type: cell-based, human; conditions: mimic transfection
Experimental: as §1

SKOV3ip1 cells [6] = test: Apoptosis assay (Caspase Glo 3/7); type: cell-based, human
Experimental: as §1

OVCAR8 cells [7] = test: Apoptosis assay (Caspase Glo 3/7); type: cell-based, human
Experimental: as §1

OVCAR5 [8] = test: Apoptosis assay (Caspase Glo 3/7); type: cell-based, human; conditions: OVCAR5, mimic transfection
Experimental: as §1

CDC25c = test: Western blot of CDC25c in OVCAR8 cells; type: cell-based, human; conditions: OVCAR8, particularly when exposed to cisplatin; listed as miR-520g/h
Experimental: (§2) Whole cell lysates equivalent to 30 μg of protein were resolved on 4-12% gradient SDS-PAGE. Resolved proteins were transferred onto PVDF membranes using the iBlot system (Invitrogen). Rabbit polyclonal and/or mouse monoclonal antibodies specifically recognizing ATM, phospo-ATM (Ser1981) CHK1 phospho-CHK1 (Ser216), p21, phospo-CHK2 ([…]), BCL2, XIAP, CDC25A were obtained from Cell Signaling Technologies (Danvers, Mass.). A rabbit polyclonal antibody recognizing FANCD2 was also purchased from Abcam (Cambridge, Mass.). Protein expression was visualized using species-specific, horseradish peroxidase-conjugated secondary antibody (Cell Signaling) and ECL Plus chemiluminescent substrate (Amersham, Buckinghamshire, UK).

ATM transcript = test: qPCR of ATM transcript in OVCAR8 cells; type: cell-based, human; conditions: OVCAR8, qPCR vs non-silencing control, baseline without cisplatin
Experimental: Total RNA was extracted from cell pellets using the mirVana miRNA extraction kit (Ambion, Austin, Tex.) according to the manufacturer's instructions. Levels of microRNA expression were examined using Mature MicroRNA Taqman assays (Applied Biosystems, Foster City, Calif.) using U6 as a control. For all gene expression assays, cDNA was prepared using qScript cDNA supermix (Quanta Biosciences, Gaithersburg, Md.). TaqMan gene expression assays (Applied Biosystems) were used to measure expression of specific target genes according to the manufacturer's instructions. All reactions were performed in triplicate using OneStepPlus real time PCR system (Applied Biosystems). All qPCR results are reported using the ΔΔCT method (17).

HEYA8 cells [9] = test: Proliferation assay; type: cell-based, human; conditions: HEYA8, acute mimic transfection
Experimental: as §1

HEY cells [10] = test: Proliferation assay; type: cell-based, human; conditions: mimic transfection
Experimental: as §1

OVCAR5 [11] = test: Proliferation assay; type: cell-based, human; conditions: OVCAR5, mimic transfection
Experimental: as §1

SKOV3ip1 cells [12] = test: Viability (MTS) across cisplatin concentrations, stable microRNA clones; type: cell-based, human; conditions: SKOV3ip1 stable clones vs non-silencing mimic
Experimental: as §1
(§3) For this reason, the inventors created clones of OVCAR8 and SKOV3ip1 ovarian cancer cell lines stably expressing either miR-520h (n=3) and miR-520a (n=3). […] To assess the impact of these microRNAs on cisplatin-induced cell killing, the inventors examined the viability of OVCAR8 and SKOV3ip1 cells stably expressing either microRNA incubated with clinically relevant concentrations of cisplatin. […] It should be noted that SKOV3ip1 cells tolerated only very low levels of miR-520a expression. The impact of cisplatin treatment on rates of apoptosis differed dramatically between the two cell lines.

OVCAR8 cells [13] = test: as above; type: cell-based, human; conditions: OVCAR8 stable clones vs non-silencing mimic, cisplatin <5 μg/mL
Experimental: as §1, §3

ATM = test: Western blot of ATM in OVCAR8 cells; type: cell-based, human; conditions: for ATM degradation / cleavage product (ΔATM): OVCAR8, increasing concentrations of cisplatin; for ATM protein expression: OVCAR8 stably expressing the microRNA vs non-silencing control or empty vector
Experimental: as §2

B1: hsa-mir-520h MI0003175 (nucleic acid, listed as Homo sapiens)
chain: UCCCAUGCUGUGACCCUCUAGAGGAAGCACUUUCUGUUUGUUGUCUGAGAAAAAACAAAGUGCUUCCCUUUAGAGUUACUGUUUGGGA
modifications: expressed or natural sequence
notes: synthetic mimic or stably expressed from pLemiR vector; written miR-520g/h interchangeably
Proliferation (SKOV3ip1 cells [1]; SKOV3ip1, acute mimic transfection): significantly reduced
Proliferation (SKOV3ip1 cells [1]; SKOV3ip1 clones stably expressing the microRNA): enhanced the proliferation
Proliferation (OVCAR8 cells [2]; OVCAR8, transient/acute mimic transfection vs non-silencing control): significantly reduced
Proliferation (OVCAR8 cells [2]; OVCAR8, transient/acute mimic transfection vs non-silencing control, listed as Mir-520g/h): significantly increased
Proliferation (OVCAR8 cells [2]; OVCAR8 clones stably expressing the microRNA): enhanced the proliferation
Increase in proliferation (OVCAR8 cells [2]; mimic, transient, 96 hours following transfection, vs non-silencing control): 19%
Implant size total tumor burden (OVCAR8 xenografts): significantly smaller
Capacity to form spheroids (OVCAR8 cells [3]): decreased capacity to form spheroids
Apoptosis (HEYA8 cells [4]): increase rates of apoptosis
Apoptosis (HEY cells [5]): no impact
Apoptosis (caspase 3/7) (SKOV3ip1 cells [6]; SKOV3ip1, acute mimic transfection, no cisplatin): decreasing apoptosis
Caspase 3/7 expression (SKOV3ip1 cells [6]; SKOV3ip1 clones stably expressing the microRNA, no cisplatin): inhibited
Apoptosis in presence of cisplatin (SKOV3ip1 cells [6]; SKOV3ip1 stable clones, cisplatin treatment): significantly increased
Caspase 3/7 expression (OVCAR8 cells [7]; OVCAR8 clones stably expressing the microRNA, no cisplatin): inhibited
Apoptosis in presence of cisplatin (OVCAR8 cells [7]; OVCAR8 stable clones, cisplatin up to 10 μg/mL, listed as miR-520g/h): significantly decreased; also recorded: significantly lower rates of apoptosis
Apoptosis (OVCAR5 [8]): no impact
CDC25c and phospho-CDC25c protein level (CDC25c): much lower; also recorded: decreased levels
ATM transcript level (ATM transcript): paradoxically higher
ATM transcript level (ATM transcript; listed as miR-520g/h): actually higher
Proliferation (HEYA8 cells [9]): no significant impact
Proliferation (HEY cells [10]): no impact
Proliferation (OVCAR5 [11]): no impact
Sensitization to cisplatin (viability) (SKOV3ip1 cells [12]): significantly sensitized
Sensitization to cisplatin (viability) (SKOV3ip1 cells [12]; listed as miR-520g/h): appeared to sensitize
Sensitization to cisplatin (viability) (OVCAR8 cells [13]): significantly sensitized
Sensitization to cisplatin (viability) (OVCAR8 cells [13]; listed as miR-520g/h): sensitized
ATM degradation / cleavage product (ΔATM) (ATM): induced both the phosphorylation and degradation
ATM degradation / cleavage product (ΔATM) (ATM; listed as MiR-520h): promotes a proteolytic degradation
ATM degradation / cleavage product (ΔATM) (ATM; listed as miR-520g/h): increased levels
Phosphorylated ATM level (ATM; OVCAR8 stably expressing the microRNA): decreased levels
ATM protein expression (ATM): decreased levels
ATM protein expression (ATM; listed as Mir-520g/h): markedly reduced
ATM protein expression (ATM; listed as miR-520g/h): significantly less
